Publication PMC3152347
Like-named read-outs stand apart in the source and are kept apart here.

Experiments:
[1] = biological target: T1, endogenous HSF1 of CEM-GFP cells (human (endogenous in CEM-GFP)), Q00613; test: cross-linking; details: remark: other sources report otherwise
T1 chain: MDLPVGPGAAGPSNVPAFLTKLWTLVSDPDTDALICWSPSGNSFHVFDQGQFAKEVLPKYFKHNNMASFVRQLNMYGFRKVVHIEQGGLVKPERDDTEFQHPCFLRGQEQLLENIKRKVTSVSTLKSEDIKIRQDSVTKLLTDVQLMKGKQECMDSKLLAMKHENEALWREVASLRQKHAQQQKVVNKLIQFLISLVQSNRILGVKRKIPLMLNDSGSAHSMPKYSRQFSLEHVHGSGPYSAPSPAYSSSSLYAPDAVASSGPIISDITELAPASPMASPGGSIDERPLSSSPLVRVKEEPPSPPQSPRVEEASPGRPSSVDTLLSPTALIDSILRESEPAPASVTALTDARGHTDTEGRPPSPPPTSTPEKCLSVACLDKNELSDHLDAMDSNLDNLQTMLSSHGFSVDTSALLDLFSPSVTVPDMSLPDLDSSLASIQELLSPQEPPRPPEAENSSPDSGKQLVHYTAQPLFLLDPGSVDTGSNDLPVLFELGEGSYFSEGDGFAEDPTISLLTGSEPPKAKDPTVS

[2] = biological target: T2, His-HSF1 (human, UniProt Q00613 1-529); test: EMSA
[3] = biological target: T2, His-HSF1; test: EMSA; remark: listed apart in the source

B1: endogenous HSF1 of CEM-GFP cells, Q00613 1-529 (natural protein)
chain: T1 chain
- stoichiometry N [1]: 3

B2: P2 (NF-kB and 3rd Sp1 site, LTR -91 to -69) (dsDNA)
DNA 1: GGGACTTTCCAGGGAGGTGTGGC
DNA 2: GCCACACCTCCCTGGAAAGTCCC
- binding result [2]: binds

B3: P1 (both NF-kB sites of LTR) (dsDNA)
DNA 1: GGGACTTTCCGCTGGGGACTTTCC
DNA 2: GGAAAGTCCCCAGCGGAAAGTCCC
- binding result [3]: no binding

B4: P3 (1st and 2nd Sp1 site) (dsDNA)
DNA 1: TGGGCGGGACTGGGGAGTGGCG
DNA 2: CGCCACTCCCCAGTCCCGCCCA
- binding result [3]: no binding

B5: P4 (2nd and 3rd Sp1 site) (dsDNA)
DNA 1: GGGAGGTGTGGCCTGGGCGGGAC
DNA 2: GTCCCGCCCAGGCCACACCTCCC
- binding result [3]: no binding
